Source: patent US20260242432A1 (NUVIG THERAPEUTICS, published 2026)

What was measured:
[1] = target: T1, mouse FcRn (mouse, UniProt Q61559 22-297; P01887 21-119, limits assumed); test: SPR, Fc loaded on anti-human Fc biosensors
T1 construct: also called mFcRn; murine FcRn
T1 sequence (looked up) 1: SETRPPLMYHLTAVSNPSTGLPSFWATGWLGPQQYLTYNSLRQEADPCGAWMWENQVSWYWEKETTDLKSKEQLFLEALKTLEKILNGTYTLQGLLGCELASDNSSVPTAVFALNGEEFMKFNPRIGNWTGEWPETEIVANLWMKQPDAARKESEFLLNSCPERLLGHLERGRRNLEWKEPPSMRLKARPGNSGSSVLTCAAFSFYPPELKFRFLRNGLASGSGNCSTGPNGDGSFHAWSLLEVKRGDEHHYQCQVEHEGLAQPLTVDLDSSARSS
T1 sequence (looked up) 2: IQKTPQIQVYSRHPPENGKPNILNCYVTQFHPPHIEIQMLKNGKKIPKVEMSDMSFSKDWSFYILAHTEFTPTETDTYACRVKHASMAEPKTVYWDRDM
Experimental: (§1) Dissociation constants (KDs) are plotted as μM (solid bars) and association constants (KAs) are plotted as Ms⁻¹ (hatched bars). (FIG. 9E and FIG. 9F) Female WT C57BL/6 (FIG. 9E) and humanized homozygous FcRn (Tg32) mice (FIG. 9F) were administered one dose of 50 mg/kg or 100 mg/kg of F241A/B4ST6 Fc or 10 mg/kg of Fc^Abdeg and serum mouse IgG was measured via ELISA out to day 7 post-dose. (FIG. 9G) SIGN-R1^{-/-} and hDC-SIGN⁺ murine bone marrow-derived macrophages (BMDMs) had their Fcγ receptors blocked then were incubated with PBS, F241A/B4ST6 Fc, or Fc^Abdeg and binding was detected by FACS using an anti-human IgG Fc antibody. […] (FIG. 911-9J) Female WT C57BL/6 mice (n=5 per group) and female and male SIGN-R1^{-/-} mice (n=5 per group) were administered arthritogenic K/BxN serum alongside PBS, 1 g/kg IVIG, 50 mg/kg F241A/B4ST6 Fc, or 10 mg/kg Fc^Abdeg in a preventative manner, and joint swelling was clinically scored for 10 days. […] Statistical significance was assessed using an ordinary one-way ANOVA with Tukey's multiple comparisons.
(§2) At the outset, the interactions between WT Fc, F241A/B4ST6 Fc, and Fc^Abdeg were tested with mouse and human FcRn using surface plasmon resonance (SPR). […] C57BL/6 and hFcRn (Tg32) mice were given a single intravenous injection of F241A/B4ST6 Fc or Fc^Abdeg and, following dosing, serum mIgG was determined via ELISA.

[2] = target: T2, human FcRn (human, UniProt P55899 24-297; P61769 21-119, limits assumed); test: SPR, Fc loaded on anti-human Fc biosensors
T2 construct: also called hFcRn
Experimental: as §1, §2

[3] = target: T1, mouse FcRn; test: not stated in the sentence (apparently the SPR of Example 7)
[4] = target: T1, mouse FcRn; test: SPR; Fc loaded on anti-human Fc biosensors, mouse FcRn in solution
Experimental: as §1, §2

[5] = target: T2, human FcRn; test: SPR; Fc loaded on anti-human Fc biosensors, human FcRn in solution
Experimental: as §1, §2

[6] = target: T3, human Dendritic Cell-Specific ICAM-3-Grabbing Non-Integrin (DC-SIGN) on hDC-SIGN^+/SIGN-R1^-/- murine bone … (human, UniProt Q9NNX6 1-404); test: flow cytometry on hDC-SIGN^+/SIGN-R1^-/- BMDMs, Fc gamma receptors blocked, detection with anti-hIgG Fc antibody
T3 construct: whole, on cells; also called hCD209
T3 sequence (looked up): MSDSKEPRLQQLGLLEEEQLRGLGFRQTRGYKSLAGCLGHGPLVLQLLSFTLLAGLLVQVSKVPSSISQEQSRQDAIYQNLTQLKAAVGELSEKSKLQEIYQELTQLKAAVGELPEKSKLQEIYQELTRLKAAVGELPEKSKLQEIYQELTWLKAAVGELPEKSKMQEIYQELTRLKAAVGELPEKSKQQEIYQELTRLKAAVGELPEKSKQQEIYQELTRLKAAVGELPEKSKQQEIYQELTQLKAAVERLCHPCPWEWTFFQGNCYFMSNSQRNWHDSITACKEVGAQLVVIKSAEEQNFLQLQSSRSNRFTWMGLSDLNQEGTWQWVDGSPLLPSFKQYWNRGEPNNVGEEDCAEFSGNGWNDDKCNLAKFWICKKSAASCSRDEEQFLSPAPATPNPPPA
Experimental: Both IVIG and sialylated IgG Fc require the murine C-type lectin Specific ICAM3-Grabbing Non-Integrin Related-1 (SIGN-R1) to mediate anti-inflammatory activity in vivo. This requirement can be circumvented by introduction of SIGN-R1 human orthologue, Dendritic Cell-Specific ICAM-3-Grabbing Non-Integrin (DC-SIGN). Therefore, the ability of both F241A/B4ST6 Fc and Fc^Abdeg to bind DC-SIGN was examined via a cell-binding assay. […] Cells were cultured overnight in high glucose DMEM medium supplemented with 1× antibiotic-antimycotic and 1×FBS at 37° C. and 5% CO₂. The next day, supernatants were discarded and cells were detached with enzyme-free dissociation buffer. Suspended cells were collected and centrifuged for 10 minutes at 400 rpm. The pellet was resuspended and washed in binding buffer (1×TBS, […], 2.5% FBS and 0.05% sodium azide). Fc receptors were blocked by adding anti-mouse CD16/32 antibody clone 93. After blocking, cells were washed in binding buffer, after which 100 μg/mL of Fc^Abdeg and F241A/B4ST6 Fc were added to the cells, which were then incubated for 1 hour on ice. […] BMDMs were analyzed by flow cytometry to detect surface-bound IgG. No bound IgG were detected on the SIGN-R1^{-/-} BMDMs incubated with F241A/B4ST6 Fc or Fc^Abdeg (FIG. 9G). However, IgG was detected on hDC-SIGN⁺/SIGN-R1^{-/-} BMDMs treated with F241A/B4ST6 Fc, but not with Fc^Abdeg (FIG. 9G).

T2 sequence (P55899 24-297 limits assumed, chain 1 of 2): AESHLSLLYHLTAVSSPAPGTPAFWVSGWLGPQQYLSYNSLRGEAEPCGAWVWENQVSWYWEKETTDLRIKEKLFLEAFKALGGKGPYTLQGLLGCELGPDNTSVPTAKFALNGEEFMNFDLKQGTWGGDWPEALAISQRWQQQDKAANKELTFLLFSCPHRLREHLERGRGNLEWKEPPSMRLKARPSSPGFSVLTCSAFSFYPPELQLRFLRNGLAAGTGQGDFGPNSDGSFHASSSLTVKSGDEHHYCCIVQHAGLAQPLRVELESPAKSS
T2 sequence (P61769 21-119 limits assumed, chain 2 of 2): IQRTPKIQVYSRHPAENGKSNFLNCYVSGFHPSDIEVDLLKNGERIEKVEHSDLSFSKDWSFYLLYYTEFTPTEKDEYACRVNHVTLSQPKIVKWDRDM

B1: Fc^Abdeg polypeptide (efgartigimod), human IgG1 Fc with M252Y/S254T/T256E/H433K/N434F (other)
chain: DKTHTCPPCPAPELLGGPSVFLFPPKPKDTLYITREPEVTCVVVDVSHEDPEVKFNWYVDGVEVHNAKTKPREEQYNSTYRVVSVLTVLHQDWLNGKEYKCKVSNKALPAPIEKTISKAKGQPREPQVYTLPPSRDELTKNQVSLTCLVKGFYPSDIAVEWESNGQPENNYKTTPPVLDSDGSFFLYSKLTVDKSRWQQGNVFSCSVMHEALKFHYTQKSLSLSPG
notes: also called EFG Fc
How did the “fold lower KD than F241A/B4ST6 Fc” value [1] turn out when B1 was run?
The value was 267 fold.

And the “fold lower KD than F241A/B4ST6 Fc” value [2]?
Its value is 39 fold.

What about the “fold enhanced affinity compared to human FcRn” value [3] of the same binder?
The value was 10 fold.

And the Kd [4]?
The Kd was 0.27 nM.

And the Kd [5]?
The Kd was 5.2 nM.

Does B1 bind [6]?
Result: no binding (tested: 100 µg/mL)
